Residue numbers refer to the chain shown, from its start. Names and notes keep the numbering of the source. No end group written: not given here. TMR = tetramethyl rhodamine dye
Columns and labels:
Experiment in all cases: fluorescence polarisation; 37 °C, after the 25 °C reading ramped over 7 min to 37 °C and 2 min incubation; unlabeled Rb^P against 1.5 nM TMR-E2F1^TD or 7.5 nM TMR-E7^LxCxE; 25 mM Tris pH 8.0, 200 mM NaCl, 1 mM DTT, 0.1% Tween-20; apparent Kd
Conditions in all cases: both partners purified
Rb^P R668H = target: T1, Rb^P R668H (human, UniProt P06400 380-788, R668H)
T1 construct: also called variant 52
T1 sequence (looked up): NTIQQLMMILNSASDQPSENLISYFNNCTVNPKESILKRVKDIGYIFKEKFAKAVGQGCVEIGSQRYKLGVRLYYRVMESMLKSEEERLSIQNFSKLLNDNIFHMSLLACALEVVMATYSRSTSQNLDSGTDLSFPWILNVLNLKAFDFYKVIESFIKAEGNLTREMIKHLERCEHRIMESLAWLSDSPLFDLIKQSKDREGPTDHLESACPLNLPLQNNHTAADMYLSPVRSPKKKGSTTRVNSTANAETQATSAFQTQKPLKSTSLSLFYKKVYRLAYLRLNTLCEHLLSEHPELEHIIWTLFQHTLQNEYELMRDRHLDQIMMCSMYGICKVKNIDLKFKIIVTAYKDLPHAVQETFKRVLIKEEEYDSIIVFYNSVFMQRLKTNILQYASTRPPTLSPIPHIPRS

Rb^P M704V = target: T2, Rb^P M704V (human, UniProt P06400 380-788, M704V)
T2 construct: also called variant 66
T2 sequence (looked up): T1 sequence (looked up) with H289R, M325V

Rb^P K462E = target: T3, Rb^P K462E (human, UniProt P06400 380-788, K462E)
T3 construct: also called variant 8
T3 sequence (looked up): T1 sequence (looked up) with K83E, H289R

Rb^P R621S = target: T4, Rb^P R621S (human, UniProt P06400 380-788, R621S)
T4 construct: also called variant 44
T4 sequence (looked up): T1 sequence (looked up) with R242S, H289R

Rb^P H673P = target: T5, Rb^P H673P (human, UniProt P06400 380-788, H673P)
T5 construct: also called variant 54
T5 sequence (looked up): T1 sequence (looked up) with H289R, H294P

B1: TMR-E2F1^TD, peptide of the E2F1 transactivation domain (peptide)
peptide: {TMR}-GEGIRDLFDCDFGDLTPLD
notes: also called E2F^TD; source: synthetic peptide, bought: GenScript
With B1 the Kd (Rb^P R668H) was 0.022 µM, the Kd (Rb^P M704V) was 0.129 µM and the Kd (Rb^P K462E) was 0.067 µM. For the same binder, the Kd (Rb^P R621S) was 0.038 µM and the Kd (Rb^P H673P) was 0.098 µM.

B2: TMR-E7^LxCxE, LxCxE peptide of the E7 oncoprotein from HPV (peptide)
peptide: DLYCYEQLN
modifications: also: TMR label, position not given here
notes: source: synthetic peptide, bought: GenScript
For B2, the Kd (Rb^P R668H) was 0.028 µM, the Kd (Rb^P M704V) was 0.051 µM and the Kd (Rb^P K462E) was 0.032 µM. For the same binder, the Kd (Rb^P R621S) was 0.017 µM and the Kd (Rb^P H673P) was 0.083 µM.

Source: PMC11931385, “Structural and functional analysis of cancer-associated missense variants in the retinoblastoma protein pocket domain” (The Journal of Biological Chemistry, 2025)
